Tests used:
[1] = biological target: T1, human recombinant BCD domains of tenascin-C (Homo sapiens, UniProt P24821); test: SPR; Biacore 3000; CM5 chip coated with murine or human recombinant BCD domains of tenascin-C; antibody (monomeric fraction of scFv, or SIP) injected at different concentrations, 10 µL/min; regeneration with 10 mM HCl; details: both partners purified
T1 construct: tenascin-C, human, alternatively spliced segment of the three fibronectin type-III homology domains B, C and D; AVI-Tag followed by the His-Tag at the C-terminus; Purification of the human construct is not clearly told; also called human BCD; human BCD domain; source: E. coli (pUC119 vector)

[2] = biological target: T2, murine recombinant BCD domains of tenascin-C (Mus musculus, UniProt Q80YX1); test: as above; details: both partners purified
T2 construct: tenascin-C, mouse, alternatively spliced segment of the three fibronectin type-III homology domains B, C and D; A biotinylated version was used for the panning; the Biacore chip was a coated CM5 chip; also called murine BCD; murine BCD antigen; source: E. coli (pQE12 vector), purified over NiNTA resin

B1: scFv(G5), human antibody G5 in monomeric scFv format (scFv, V domains shown)
VH: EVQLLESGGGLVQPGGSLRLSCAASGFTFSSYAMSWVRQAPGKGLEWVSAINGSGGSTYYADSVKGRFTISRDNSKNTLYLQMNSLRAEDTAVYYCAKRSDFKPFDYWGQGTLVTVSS
VL: SSELTQDPAVSVALGQTVRITCQGDSLRSYYASWYQQKPGQAPVLVIYGKNNRPSGIPDRFSGSSSGNTASLTITGAQAEDEADYYCNSSGFPRTLVVFGGGTKLTVL
notes: VH of G5; library VH is on the DP47 germline with S52N (numbering of Tomlinson et al.) and a randomised CDR3 (residues 95-100); flexible polypeptide linker that connects VH and VL in the library's scFv format; VL of G5; Library scFv are detected by the anti-myc antibody 9E10; also called G5 antibody clone; anti-BCD antibody G5; source: E. coli (pHEN1 phagemid, IPTG induction), purified over …
Kd [1]: 27 nM
koff [1]: 0.003 s⁻¹
kon [1]: 110000 M⁻¹ s⁻¹
Kd [2]: 31 nM
koff [2]: 0.0025 s⁻¹
kon [2]: 79000 M⁻¹ s⁻¹

— PMC4065035, “A Highly Functional Synthetic Phage Display Library Containing over 40 Billion Human Antibody Clones” (PLoS ONE, 2014)
